We go through 13 molecules from patent US20250352661A1 (MYTHIC THERAPEUTICS, published 2025).

T1: Human LRRC15 Protein, His Tag (Acro Biosystems) (human, UniProt Q8TF66 22-538, limits assumed)
T1 construct: not shown: His tag
T1 sequence (looked up): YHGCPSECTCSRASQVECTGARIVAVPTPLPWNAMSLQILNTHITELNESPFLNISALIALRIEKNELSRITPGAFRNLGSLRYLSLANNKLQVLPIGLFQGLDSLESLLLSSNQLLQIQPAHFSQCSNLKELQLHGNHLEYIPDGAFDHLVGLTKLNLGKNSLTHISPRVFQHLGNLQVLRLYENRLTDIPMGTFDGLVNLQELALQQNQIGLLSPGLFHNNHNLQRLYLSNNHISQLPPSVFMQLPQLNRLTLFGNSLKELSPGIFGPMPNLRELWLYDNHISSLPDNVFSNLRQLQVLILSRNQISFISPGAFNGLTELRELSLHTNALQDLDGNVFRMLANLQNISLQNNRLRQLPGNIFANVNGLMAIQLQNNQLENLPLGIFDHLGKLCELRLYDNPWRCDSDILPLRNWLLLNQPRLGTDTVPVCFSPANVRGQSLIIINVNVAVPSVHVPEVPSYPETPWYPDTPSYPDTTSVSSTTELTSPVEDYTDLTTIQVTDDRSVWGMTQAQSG

T2: Human LRRC15 Protein, His Tag (Acro Biosystems) (human, UniProt Q8TF66 22-538, limits assumed)
T2 sequence (looked up): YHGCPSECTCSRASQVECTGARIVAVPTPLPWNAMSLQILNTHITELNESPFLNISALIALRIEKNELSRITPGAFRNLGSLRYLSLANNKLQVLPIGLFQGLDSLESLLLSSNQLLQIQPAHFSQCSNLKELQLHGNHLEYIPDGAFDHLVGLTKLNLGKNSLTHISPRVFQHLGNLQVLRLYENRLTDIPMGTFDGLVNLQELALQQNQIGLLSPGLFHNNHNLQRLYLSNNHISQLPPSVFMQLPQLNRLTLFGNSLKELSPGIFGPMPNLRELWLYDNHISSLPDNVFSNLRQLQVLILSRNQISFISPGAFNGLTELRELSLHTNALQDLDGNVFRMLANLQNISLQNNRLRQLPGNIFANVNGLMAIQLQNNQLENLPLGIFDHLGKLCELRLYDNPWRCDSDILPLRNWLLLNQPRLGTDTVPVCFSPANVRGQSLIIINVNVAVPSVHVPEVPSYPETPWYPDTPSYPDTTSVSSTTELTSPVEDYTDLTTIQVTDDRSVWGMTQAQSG

B1: MYT9684 (antibody, V domains shown)
VH: EVQLVESGGGLVQPGGSLRLSCTASEFSFSSSHWICWVRQAPGKGLEWVGCIYAGSIGSTYYASWAKGRFTISRDTSKNTVYLQMNSLRAEDTAVYYCARAPNDIYNYYFNLWGQGTLVTVSS
VL: EIVMTQSPSTLSASVGDRVIITCQASENIYNYLAWYQQKPGKAPKLLIYYASTLASGVPSRFSGSGSGAEFTLTISSLQPDDFATYYCQSGYVSKSSTFGQGTKLTVL
notes: also called hu29F1 VH G26E
B2: MYT9685 (antibody, V domains shown)
VH: EVQLVESGGGLVQPGGSLRLSCTASGESFSSSHWICWVRQAPGKGLEWVGCIYAGSIGSTYYASWAKGRFTISRDTSKNTVYLQMNSLRAEDTAVYYCARAPNDIYNYYFNLWGQGTLVTVSS
VL: EIVMTQSPSTLSASVGDRVIITCQASENIYNYLAWYQQKPGKAPKLLIYYASTLASGVPSRFSGSGSGAEFTLTISSLQPDDFATYYCQSGYVSKSSTFGQGTKLTVL
notes: also called hu29F1 VH F27E
B3: MYT9688 (antibody, V domains shown)
VH: EVQLVESGGGLVQPGGSLRLSCTASGFSFESSHWICWVRQAPGKGLEWVGCIYAGSIGSTYYASWAKGRFTISRDTSKNTVYLQMNSLRAEDTAVYYCARAPNDIYNYYFNLWGQGTLVTVSS
VL: EIVMTQSPSTLSASVGDRVIITCQASENIYNYLAWYQQKPGKAPKLLIYYASTLASGVPSRFSGSGSGAEFTLTISSLQPDDFATYYCQSGYVSKSSTFGQGTKLTVL
notes: also called hu29F1 VH S30E
B4: MYT9686 (antibody, V domains shown)
VH: EVQLVESGGGLVQPGGSLRLSCTASGFEFSSSHWICWVRQAPGKGLEWVGCIYAGSIGSTYYASWAKGRFTISRDTSKNTVYLQMNSLRAEDTAVYYCARAPNDIYNYYFNLWGQGTLVTVSS
VL: EIVMTQSPSTLSASVGDRVIITCQASENIYNYLAWYQQKPGKAPKLLIYYASTLASGVPSRFSGSGSGAEFTLTISSLQPDDFATYYCQSGYVSKSSTFGQGTKLTVL
notes: also called hu29F1 VH S28E
B5: MYT6100 (antibody, V domains shown)
VH: QEQLEESGGDLVKPGASLTLTCTASGLDFRRTNYICWVRQAPGKGLEWIGCIYIADVVHHYASWAKGRFTFSKTSSTTVTLQMTSLTAADTATYFCARGADGGFVYGMDLWGPGTLVTVSS
VL: DVVMTQTPASVSEPVGGTVTIKCQASQSIGNYLSWYQQKPGQRPKRLIYSASTLPSGVPSRFKGAGSGTEFTLTISDLESADAATYYCQNNYWLAGYGHPFGGGTEVVVK
notes: chimeric rabbit 15G7 variant (rabbit variable domains, human constant regions); also called 15G7 VH Y60H
B6: MYT6108 (antibody, V domains shown)
VH: QEQLEESGGDLVKPGASLTLTCTASGLDFRRTNYICWVRQAPGKGLEWIGCIYIADVVHYYASWAKGRFTFSKTSSTTVTLQMTSLTAADTATYFCHRGADGGFVYGMDLWGPGTLVTVSS
VL: DVVMTQTPASVSEPVGGTVTIKCQASQSIGNYLSWYQQKPGQRPKRLIYSASTLPSGVPSRFKGAGSGTEFTLTISDLESADAATYYCQNNYWLAGYGHPFGGGTEVVVK
notes: chimeric rabbit 15G7 variant (rabbit variable domains, human constant regions); also called 15G7 VH A97H
B7: MYT6110 (antibody, V domains shown)
VH: QEQLEESGGDLVKPGASLTLTCTASGLDFRRTNYICWVRQAPGKGLEWIGCIYIADVVHYYASWAKGRFTFSKTSSTTVTLQMTSLTAADTATYFCARHADGGFVYGMDLWGPGTLVTVSS
VL: DVVMTQTPASVSEPVGGTVTIKCQASQSIGNYLSWYQQKPGQRPKRLIYSASTLPSGVPSRFKGAGSGTEFTLTISDLESADAATYYCQNNYWLAGYGHPFGGGTEVVVK
notes: chimeric rabbit 15G7 variant (rabbit variable domains, human constant regions); also called 15G7 VH G99H
B8: MYT6105 (antibody, V domains shown)
VH: QEQLEESGGDLVKPGASLTLTCTASGLDFRRTNYICWVRQAPGKGLEWIGCIYIADVVHYYASWHKGRFTFSKTSSTTVTLQMTSLTAADTATYFCARGADGGFVYGMDLWGPGTLVTVSS
VL: DVVMTQTPASVSEPVGGTVTIKCQASQSIGNYLSWYQQKPGQRPKRLIYSASTLPSGVPSRFKGAGSGTEFTLTISDLESADAATYYCQNNYWLAGYGHPFGGGTEVVVK
notes: chimeric rabbit 15G7 variant (rabbit variable domains, human constant regions); also called 15G7 VH A65H
B9: MYT6101 (antibody, V domains shown)
VH: QEQLEESGGDLVKPGASLTLTCTASGLDFRRTNYICWVRQAPGKGLEWIGCIYIADVVHYHASWAKGRFTFSKTSSTTVTLQMTSLTAADTATYFCARGADGGFVYGMDLWGPGTLVTVSS
VL: DVVMTQTPASVSEPVGGTVTIKCQASQSIGNYLSWYQQKPGQRPKRLIYSASTLPSGVPSRFKGAGSGTEFTLTISDLESADAATYYCQNNYWLAGYGHPFGGGTEVVVK
notes: chimeric rabbit 15G7 variant (rabbit variable domains, human constant regions); also called 15G7 VH Y61H
B10: MYT6106 (antibody, V domains shown)
VH: QEQLEESGGDLVKPGASLTLTCTASGLDFRRTNYICWVRQAPGKGLEWIGCIYIADVVHYYASWAHGRFTFSKTSSTTVTLQMTSLTAADTATYFCARGADGGFVYGMDLWGPGTLVTVSS
VL: DVVMTQTPASVSEPVGGTVTIKCQASQSIGNYLSWYQQKPGQRPKRLIYSASTLPSGVPSRFKGAGSGTEFTLTISDLESADAATYYCQNNYWLAGYGHPFGGGTEVVVK
notes: chimeric rabbit 15G7 variant (rabbit variable domains, human constant regions); also called 15G7 VH K66H
B11: MYT6109 (antibody, V domains shown)
VH: QEQLEESGGDLVKPGASLTLTCTASGLDFRRTNYICWVRQAPGKGLEWIGCIYIADVVHYYASWAKGRFTFSKTSSTTVTLQMTSLTAADTATYFCAHGADGGFVYGMDLWGPGTLVTVSS
VL: DVVMTQTPASVSEPVGGTVTIKCQASQSIGNYLSWYQQKPGQRPKRLIYSASTLPSGVPSRFKGAGSGTEFTLTISDLESADAATYYCQNNYWLAGYGHPFGGGTEVVVK
notes: chimeric rabbit 15G7 variant (rabbit variable domains, human constant regions); also called 15G7 VH R98H
B12: MYT6107 (antibody, V domains shown)
VH: QEQLEESGGDLVKPGASLTLTCTASGLDFRRTNYICWVRQAPGKGLEWIGCIYIADVVHYYASWAKHRFTFSKTSSTTVTLQMTSLTAADTATYFCARGADGGFVYGMDLWGPGTLVTVSS
VL: DVVMTQTPASVSEPVGGTVTIKCQASQSIGNYLSWYQQKPGQRPKRLIYSASTLPSGVPSRFKGAGSGTEFTLTISDLESADAATYYCQNNYWLAGYGHPFGGGTEVVVK
notes: chimeric rabbit 15G7 variant (rabbit variable domains, human constant regions); also called 15G7 VH G67H
B13: MYT6103 (antibody, V domains shown)
VH: QEQLEESGGDLVKPGASLTLTCTASGLDFRRTNYICWVRQAPGKGLEWIGCIYIADVVHYYAHWAKGRFTFSKTSSTTVTLQMTSLTAADTATYFCARGADGGFVYGMDLWGPGTLVTVSS
VL: DVVMTQTPASVSEPVGGTVTIKCQASQSIGNYLSWYQQKPGQRPKRLIYSASTLPSGVPSRFKGAGSGTEFTLTISDLESADAATYYCQNNYWLAGYGHPFGGGTEVVVK
notes: chimeric rabbit 15G7 variant (rabbit variable domains, human constant regions); also called 15G7 VH S63H

In one experiment the target is T1, Human LRRC15 Protein, His Tag (Acro …). The experiment is described as follows: BLI; dissociation pH 7.4 black, pH 5.4 grey [1/2); D00025 FIG. 6B (1/2]. Here is the method: Desirable mutations were transferred to a humanized framework (humanized, MYT 8387-8411). After allowing for four days of protein expression, cell culture supernatants were collected, quantified by SDS-PAGE analysis, and the pH dependence of the variant was evaluated using biolayer interferometry (BLI) on an Octet RED 96e instrument. Briefly, cell culture supernatants were diluted based on qualitative expression level of the variant determined by visual examination of SDS-PAGE gels, 5 μL of cell culture supernatant was diluted into 195 μL of 1×PBST, pH 7.4 for high expressors, 25 μL of cell culture supernatant was diluted into 175 μL of 1×PBST, pH 7.4 for medium expressors and 100 μL of cell culture supernatant was diluted into 100 μL of 1×PBST, pH 7.4 for low expressors for loading onto the sensor tips. The resulting diluted supernatants were then captured on an anti-human Fc sensor (Forte Bio). A baseline was established using 1×PBST (50 mM Potassium Phosphate Buffer+150 mM NaCl+0.05% Tween 20) pH 7.4, and the […] was associated with 50 nM of LRRC15 (Human LRRC15 Protein, His Tag, Acro Biosystems) in 1×PBST pH 7.4 for 120 sec to generate an association curve. In the dissociation phase, the antibody-antigen complex on the sensor was exposed to 1×PBST pH 7.4 or pH 5.4, for 300 sec. Association and dissociation phase curves were examined for the starting ABPC antibody (with no substitutions) and each corresponding antibody variant at pH 5.4 and pH 7.4 to inform on two criteria: a) enhanced dissociation (i.e., higher koff values) at pH 5.4 due to histidine substitution compared to the starting ABPC, (with no substitutions), and b) reduced dissociation at pH 7.4 (i.e., lower koff values) compared to pH 5.4 in the antibody variant itself and with the starting ABPC (with no substitutions).
The methods of Examples 9-10 were applied to RabMAb clone 29F1 (rabbit VH SEQ ID NO: 572 and VL SEQ ID NO: 578; and humanized VH SEQ ID NO: 576 and VL SEQ ID NO: 582).
Take B1: the binding result is on record as “binds”.
Turning to B2, the binding result was “binds”.
Same read-out and setting: for B3 the value was “binds”.
Turning to B4, the binding result was “binds”.

Another experiment addresses T2, Human LRRC15 Protein, His Tag (Acro …). The experiment is described as follows: BLI; dissociation pH 7.4 black, pH 5.4 grey [1/2); D00006 FIG. 1E (1/2]. The source says: For each individual plot, antigen binding proteins were captured on anti-human Fc biosensors and associated with LRRC15 at pH 7.4. Dissociation was at pH 7.4 (black) or pH 5.4 (grey). Major X-axis ticks=100 seconds, with left dashed vertical line=0 seconds. Major Y-axis ticks=0.5 nm and octet plots are shown MYT5712 and MYT6080-MYT6121.
Multiple LRRC15-binding monoclonal antibodies have been described in the literature and can be used as a template for engineering pH-dependent binding. We selected discovery RabMAb clone 15G7 (rabbit VH SEQ ID NO: 378, rabbit VL SEQ ID NO: 451; humanized VH SEQ ID NO: 382, humanized VL SEQ ID NO: 455) as a LRRC15-binding monoclonal antibody for pH-engineering via histidine scanning. […] To generate pH-dependent sequence variants, individual amino acid residues within the heavy chain CDRs were systematically substituted with a histidine (or alanine if H was already present in a given position; e.g., MYT6099), one at a time (rabbit, MYT6080-6121). Desirable mutations were transferred to a humanized framework (humanized, MYT 8387-8411). After allowing for four days of protein expression, cell culture supernatants were collected, quantified by SDS-PAGE analysis, and the pH dependence of the variant was evaluated using biolayer interferometry (BLI) on an Octet RED 96e instrument. Briefly, cell culture supernatants were diluted based on qualitative expression level of the variant determined by visual examination of SDS-PAGE gels, 5 μL of cell culture supernatant was diluted into 195 μL of 1×PBST, pH 7.4 for high expressors, 25 μL of cell culture supernatant was diluted into 175 μL of 1×PBST, pH 7.4 for medium expressors and 100 μL of cell culture supernatant was diluted into 100 μL of 1×PBST, pH 7.4 for low expressors for loading onto the sensor tips.
Turning to B5, the binding result was “binds”.
B6: the binding result is “binds”.
Still for that read-out and setting: for B7 the value was “binds”.
Still for that read-out and setting: for B8 the value was “binds”; for B9, “binds”; for B10, “binds”.
With B11, the binding result was “binds”.
Consider B12, for which the binding result was “binds”.
Consider B13, for which the binding result is recorded as “binds”.
